# Source: patent US20200283482A1, “BICYCLIC PEPTIDE LIGAND PRR-A CONJUGATES AND USES THEREOF” (BicycleRD Limited, priority 2017, published 2020)
# Starred links: 1 amine or outer side, 2 acyl side, 3 side chain; linkers in the order of their positions; H or OH if unused. Positions of bridges follow the written chain, without caps; N, C: chain ends. Non-standard residues stand in square brackets, D forms with d. Residues, ends and D or L forms follow the SMILES beside them. *: point of attachment. X9 = CCOCc1nc2c(NC(=O)[C@H](CCCCNC(=O)OCc3ccc(NC(=O)[C@H](CCCNC(N)=O)NC(=O)[C@@H](NC(=O)Cn4cc(CCC(=O)*)nn4)C(C)C)cc3)NC(C)=O)nc3ccccc3c2n1CC(C)(C)O; X6 = CCN(Cc1nc2c(N)nc3ccccc3c2n1CC(C)(C)O)C(=O)OCc1ccc(NC(=O)[C@H](CCCNC(N)=O)NC(=O)[C@@H](NC(=O)Cn2cc(CCC(=O)*)nn2)C(C)C)cc1; X4 = CCN(Cc1nc2c(N)nc3ccccc3c2n1CC(C)(C)O)C(=O)OCc1ccc(NC(=O)[C@H](CCCNC(N)=O)NC(=O)C2(C(=O)*)CCC2)cc1; X8 = CCOCc1nc2c(NC(=O)OCc3ccc(NC(=O)[C@H](CCCNC(N)=O)NC(=O)C4(C(=O)*)CCC4)cc3)nc3ccccc3c2n1CC(C)(C)O; X10 = CCCOc1nc(NC(=O)OCCSSC(C)CCC(=O)*)c2[nH]c(=O)n(Cc3ccc(OCCN(C)C)nc3)c2n1; Resiquimod = CCOCc1nc2c(N*)nc3ccccc3c2n1CC(C)(C)O; 1Nal = N[C@@H](Cc1cccc2ccccc12)C(=O)O; TBMB = c1c(C[*:1])cc(C[*:3])cc1C[*:2]; X5 = O=C(CCc1cn(CCCN[*:1])nn1)[*:2]; Glutaryl = O=C(CCCC(=O)[*:2])[*:1]; Tle = CC(C)(C)[C@H](N)C(=O)O; βAla = NCCC(=O)O; Sar = CNCC(=O)O
# How the values were obtained:
# [1] = Plasma stability, rat; assay type: in vitro ADME; conditions: pH 7.4
# Protocol: (§1) The pooled frozen mouse, rat, dog, monkey or human plasma is thawed in a water bath at 37° C. prior to experiment. Plasma is centrifuged at 4000 rpm for 5 min and the clots are removed if any. […] For positive controls, 100 μM intermediate solution is prepared by diluting 20 μL of the stock solution with 180 μL 45% MeOH/H2O. […] For compounds I-7 to […]-17, […]-22, and […]-33, at each time point (0, 1, 2, 4, 6 and 24 hr), reactions were stopped by removing the plates from water bath and 200 μL 20 mM NH4OAC mix well first and then adding 800 μL of ice-cold stop solution (200 ng/mL Labetalol, 200 ng/mL Tolbutamide, 500 ng/mL N6-Ben and 40 mM DBAA in 100% Methanol). […] Sample plates were vortexed immediately on a plate shaker at 800 rpm for 10 min and then centrifuged at 4,000 rpm for 10 min. An aliquot of supernatant (200 μL) is transferred from each well before submitting to LC-MS/MS analysis. The percentage of test compound remaining at the individual time points relative to the 0 hour sample is calculated using following equation: Percent Remaining=100×(PAR at appointed incubation time/PAR at T0 time) where PAR is the peak area ratio of analyte versus internal standard (IS).
# [2] = Blood stability, mouse; assay type: in vitro ADME, CD-1 mouse; conditions: male
# Protocol: CD-1 mouse blood (n≥2, male, fasted overnight) is collected from animals housed at an internal facility. (EDTA-K2 is used as anticoagulant)
# The test compounds and positive control stock solutions are prepared to 10 mM in DMSO or ultrapure water. Control compounds bisacodyl, enalapril and propantheline known to be metabolised by blood are also incubated alongside each batch of test compounds I-7, I-22, I-24, I-25, I-27, and I-29 to I-33. The dosing solutions of test compounds and controls are prepared by diluting the stock solution with 45% MeOH/H2O to achieve 100 uM. Test compound solutions (final incubation concentration=2 μM) are incubated with blood (final DMSO concentration≤1%) at six different time points (0, 1, 2, 4, 6 and 24 hours) in duplicate (n=2). The reaction is terminated by adding 100 uL ultra-pure water, mixing well, then adding 800 uL of 100% methanol containing 200 ng/mL tolbutamide and 200 ng/mL labetalol as internal standards. Samples are then vortexed and centrifuged at 3200×g for 20 minutes. Following centrifugation, the concentration of test compound in the supernatant is determined semi-quantitatively by LC-MS/MS. The percentage of test compound remaining at the individual time points relative to the 0 hour sample is then reported. The percent remaining of test compound after incubation in blood is calculated using following equation: Percent Remaining=100×(PAR at appointed incubation time/PAR at T0 time) where PAR is the peak area ratio of analyte versus internal standard (IS).
# [3] = Plasma stability, cyno; assay type: in vitro ADME; conditions: cynomolgus monkey, pH 7.4
# Protocol: as §1
# [4] = Plasma stability, mouse; assay type: in vitro ADME; conditions: pH 7.4
# Protocol: as §1
# [5] = Plasma stability, human; assay type: in vitro ADME; conditions: pH 7.4
# Protocol: as §1
# [6] = Plasma stability, dog; assay type: in vitro ADME; conditions: pH 7.4; dog plasma, 2 μM, 37° C.; read-out: T1/2 (dog)
# Protocol: as §1
SMILES,"half-life at 2 μM ([1]; rat, plasma) [h]","half-life at 2 μM ([2]; CD-1, mouse) [h]",half-life at 2 μM ([3]; plasma) [h],"half-life at 2 μM ([4]; mouse, plasma) [h]","half-life at 2 μM ([5]; human, plasma) [h]",half-life at 2 μM [6] [h],"half-life at 2 μM ([1]; rat plasma, 2 μM, 37° C., read-out: T1/2 (rat)) [h]","half-life at 2 μM ([3]; cyno plasma, 2 μM, 37° C., read-out: T1/2 (cyno)) [h]","half-life at 2 μM ([4]; mouse plasma, 2 μM, 37° C., read-out: T1/2 (mouse)) [h]","half-life at 2 μM ([5]; human plasma, 2 μM, 37° C., read-out: T1/2 (human)) [h]","half-life at 2 μM ([2]; CD-1 mouse blood, 2 μM, read-out: T1/2 (mouse)) [h]"
CCOCc1nc2c(NC(=O)[C@H](CCCCNC(=O)OCc3ccc(NC(=O)[C@H](CCCNC(N)=O)NC(=O)[C@@H](NC(=O)Cn4cc(CCC(=O)NCCC(=O)N(C)CC(=O)N(C)CC(=O)N(C)CC(=O)N(C)CC(=O)N(C)CC(=O)N(C)CC(=O)N(C)CC(=O)N(C)CC(=O)N(C)CC(=O)N(C)CC(=O)N[C@@H](C)C(=O)N[C@H]5CSCc6cc7cc(c6)CSC[C@H](NC(=O)[C@@H](C)NC(=O)[C@H](Cc6cccc8ccccc68)NC(=O)[C@H](CCC(=O)O)NC(=O)[C@H](CC(N)=O)NC(=O)[C@@H](C)NC5=O)C(=O)N[C@@H](CCC(=O)O)C(=O)N[C@@H](CC(=O)O)C(=O)N[C@@H](Cc5ccccc5)C(=O)N[C@@H](Cc5ccc(O)cc5)C(=O)N[C@@H](CC(=O)O)C(=O)N[C@@H](C(C)(C)C)C(=O)N[C@H](C(N)=O)CSC7)nn4)C(C)C)cc3)NC(C)=O)nc3ccccc3c2n1CC(C)(C)O [I-24] ({X9-βAla}-[Sar][Sar][Sar][Sar][Sar][Sar][Sar][Sar][Sar][Sar]AC[dA]NE[1Nal][dA]CEDFYD[Tle]C-NH2; linker 12-18-25 via TBMB),6 to 24,6 to 24,> 24,6 to 24,> 24,–,–,–,–,–,–
CCCOc1nc(NC(=O)OCCSSC(C)CCC(=O)NCCC(=O)N(C)CC(=O)N(C)CC(=O)N(C)CC(=O)N(C)CC(=O)N(C)CC(=O)N(C)CC(=O)N(C)CC(=O)N(C)CC(=O)N(C)CC(=O)N(C)CC(=O)N[C@@H](C)C(=O)N[C@H]2CSCc3cc4cc(c3)CSC[C@H](NC(=O)[C@@H](C)NC(=O)[C@H](Cc3cccc5ccccc35)NC(=O)[C@H](CCC(=O)O)NC(=O)[C@H](CC(N)=O)NC(=O)[C@@H](C)NC2=O)C(=O)N[C@@H](CCC(=O)O)C(=O)N[C@@H](CC(=O)O)C(=O)N[C@@H](Cc2ccccc2)C(=O)N[C@@H](Cc2ccc(O)cc2)C(=O)N[C@@H](CC(=O)O)C(=O)N[C@@H](C(C)(C)C)C(=O)N[C@H](C(N)=O)CSC4)c2[nH]c(=O)n(Cc3ccc(OCCN(C)C)nc3)c2n1 (stereo partly drawn) [I-17] ({X10-βAla}-[Sar][Sar][Sar][Sar][Sar][Sar][Sar][Sar][Sar][Sar]AC[dA]NE[1Nal][dA]CEDFYD[Tle]C-NH2; linker 12-18-25 via TBMB),–,–,–,–,–,< 2,< 2,< 2,< 2,< 2,–
CCOCc1nc2c(NC(=O)CCCC(=O)NCCC(=O)N(C)CC(=O)N(C)CC(=O)N(C)CC(=O)N(C)CC(=O)N(C)CC(=O)N(C)CC(=O)N(C)CC(=O)N(C)CC(=O)N(C)CC(=O)N(C)CC(=O)N[C@@H](C)C(=O)N[C@H]3CSCc4cc5cc(c4)CSC[C@H](NC(=O)[C@@H](C)NC(=O)[C@H](Cc4cccc6ccccc46)NC(=O)[C@H](CCC(=O)O)NC(=O)[C@H](CC(N)=O)NC(=O)[C@@H](C)NC3=O)C(=O)N[C@@H](CCC(=O)O)C(=O)N[C@@H](CC(=O)O)C(=O)N[C@@H](Cc3ccccc3)C(=O)N[C@@H](Cc3ccc(O)cc3)C(=O)N[C@@H](CC(=O)O)C(=O)N[C@@H](C(C)(C)C)C(=O)N[C@H](C(N)=O)CSC5)nc3ccccc3c2n1CC(C)(C)O [I-25] ({Resiquimod-Glutaryl-βAla}-[Sar][Sar][Sar][Sar][Sar][Sar][Sar][Sar][Sar][Sar]AC[dA]NE[1Nal][dA]CEDFYD[Tle]C-NH2; linker 12-18-25 via TBMB),> 24,–,> 24,> 24,> 24,–,–,–,–,–,> 24
CCN(Cc1nc2c(N)nc3ccccc3c2n1CC(C)(C)O)C(=O)OCc1ccc(NC(=O)[C@H](CCCNC(N)=O)NC(=O)C2(C(=O)NCCCn3cc(CCC(=O)NCCC(=O)N(C)CC(=O)N(C)CC(=O)N(C)CC(=O)N(C)CC(=O)N(C)CC(=O)N(C)CC(=O)N(C)CC(=O)N(C)CC(=O)N(C)CC(=O)N(C)CC(=O)N[C@@H](C)C(=O)N[C@H]4CSCc5cc6cc(c5)CSC[C@H](NC(=O)[C@@H](C)NC(=O)[C@H](Cc5cccc7ccccc57)NC(=O)[C@H](CCC(=O)O)NC(=O)[C@H](CC(N)=O)NC(=O)[C@@H](C)NC4=O)C(=O)N[C@@H](CCC(=O)O)C(=O)N[C@@H](CC(=O)O)C(=O)N[C@@H](Cc4ccccc4)C(=O)N[C@@H](Cc4ccc(O)cc4)C(=O)N[C@@H](CC(=O)O)C(=O)N[C@@H](C(C)(C)C)C(=O)N[C@H](C(N)=O)CSC6)nn3)CCC2)cc1 [I-30] (X4-[X5][βAla][Sar][Sar][Sar][Sar][Sar][Sar][Sar][Sar][Sar][Sar]AC[dA]NE[1Nal][dA]CEDFYD[Tle]C-NH2; linker 14-20-27 via TBMB),> 24,6 to 24,> 24,> 24,> 24,–,–,–,–,–,–
CCN(Cc1nc2c(N)nc3ccccc3c2n1CC(C)(C)O)C(=O)OCc1ccc(NC(=O)[C@H](CCCNC(N)=O)NC(=O)[C@@H](NC(=O)Cn2cc(CCC(=O)NCCC(=O)N(C)CC(=O)N(C)CC(=O)N(C)CC(=O)N(C)CC(=O)N(C)CC(=O)N(C)CC(=O)N(C)CC(=O)N(C)CC(=O)N(C)CC(=O)N(C)CC(=O)N[C@@H](C)C(=O)N[C@H]3CSCc4cc5cc(c4)CSC[C@H](NC(=O)[C@@H](C)NC(=O)[C@H](Cc4cccc6ccccc46)NC(=O)[C@H](CCC(=O)O)NC(=O)[C@H](CC(N)=O)NC(=O)[C@@H](C)NC3=O)C(=O)N[C@@H](CCC(=O)O)C(=O)N[C@@H](CC(=O)O)C(=O)N[C@@H](Cc3ccccc3)C(=O)N[C@@H](Cc3ccc(O)cc3)C(=O)N[C@@H](CC(=O)O)C(=O)N[C@@H](C(C)(C)C)C(=O)N[C@H](C(N)=O)CSC5)nn2)C(C)C)cc1 [I-33] ({X6-βAla}-[Sar][Sar][Sar][Sar][Sar][Sar][Sar][Sar][Sar][Sar]AC[dA]NE[1Nal][dA]CEDFYD[Tle]C-NH2; linker 12-18-25 via TBMB),> 24,6 to 24,> 24,6 to 24,> 24,–,–,–,–,–,–
CCOCc1nc2c(NC(=O)OCc3ccc(NC(=O)[C@H](CCCNC(N)=O)NC(=O)C4(C(=O)NCCCn5cc(CCC(=O)NCCC(=O)N(C)CC(=O)N(C)CC(=O)N(C)CC(=O)N(C)CC(=O)N(C)CC(=O)N(C)CC(=O)N(C)CC(=O)N(C)CC(=O)N(C)CC(=O)N(C)CC(=O)N[C@@H](C)C(=O)N[C@H]6CSCc7cc8cc(c7)CSC[C@H](NC(=O)[C@@H](C)NC(=O)[C@H](Cc7cccc9ccccc79)NC(=O)[C@H](CCC(=O)O)NC(=O)[C@H](CC(N)=O)NC(=O)[C@@H](C)NC6=O)C(=O)N[C@@H](CCC(=O)O)C(=O)N[C@@H](CC(=O)O)C(=O)N[C@@H](Cc6ccccc6)C(=O)N[C@@H](Cc6ccc(O)cc6)C(=O)N[C@@H](CC(=O)O)C(=O)N[C@@H](C(C)(C)C)C(=O)N[C@H](C(N)=O)CSC8)nn5)CCC4)cc3)nc3ccccc3c2n1CC(C)(C)O [I-29] (X8-[X5][βAla][Sar][Sar][Sar][Sar][Sar][Sar][Sar][Sar][Sar][Sar]AC[dA]NE[1Nal][dA]CEDFYD[Tle]C-NH2; linker 14-20-27 via TBMB),6 to 24,< 2,> 24,> 24,> 24,–,–,–,–,–,–
